Measured values published in patent publication US7423021B2, “Peptidic thrombin inhibitors” (NSCI Novel Science International GmbH, priority 2003, dated 2008).
Numbered stars: 1 amine (or outer) side, 2 acyl side, 3 side chain; on linkers, the order of the positions; unused ones are H or OH. Square brackets hold non-standard residues; d marks the D form. Peptide text beside a SMILES is read from it. * marks the point of attachment. Ppd = 4-phenylpiperidine-4-carboxylic acid, O=C(C1(c2ccccc2)CCN([*:1])CC1)[*:2]; Phe(4-NO2) = N[C@@H](Cc1ccc([N+](=O)[O-])cc1)C(=O)O; Tpi = O=C(O)[C@@H]1Cc2c([nH]c3ccccc23)CN1; X1 = N=C(N)NC[C@H]1CC[C@H](C(=O)*)CC1; hArg = N=C(N)NCCCC[C@H](N)C(=O)O; Tic = O=C(O)[C@@H]1Cc2ccccc2CN1; Cha = N[C@@H](CC1CCCCC1)C(=O)O; dCha = N[C@H](CC1CCCCC1)C(=O)O; Phg = N[C@H](C(=O)O)c1ccccc1; Dcp = dichlorophenylalanine; Nle = CCCC[C@H](N)C(=O)O; Aze = O=C(O)[C@@H]1CCN1; Tea = thienylalanine

Molecular target: thrombin (Homo sapiens, UniProt P00734)
Assay: in-vitro inhibition of the amidase activity of thrombin (fluorogenic substrate Tos-Gly-Pro-Arg-AMC)
Assay type: biochemical
Design: 10 μl of human thrombin solution
Settings: not given
Experimental: The values of the inhibiting constants Ki were obtained from assays in which thrombin hydrolyzes the fluorogenic substrate Tos-Gly-Pro-Arg-(7-amino-4-methylcumarin). The assays were carried out in […] of assay buffer (0.05 M tris, 0.1 M NaCl, 0.1% PEG 8000, pH 7.6) with 10 μl of human thrombin solution (10^−5 U/μl in the assay buffer) and 140 μl of a solution of the fluorogenic substrate in an assay buffer at a concentration of 30 μM. Solutions of the test compound (10 μl) were added at various concentrations. The rates of the hydrolysis of the substrate were measured by monitoring the reactions at […] of the release of 7-amino-4-methylcumarin using AMC. The reaction reached an equilibrium state within three minutes, after thrombin, the substrate, and an inhibitor were mixed. The kinetic data of the competing inhibition (Km, Vmax, and Ki) were analyzed by means of the representation according to Hanes (A/V against A at various values of A, where A is the substrate concentration and V the reaction rate).

Compound	Ki
N=C(N)NCCCC[C@H](NC(=O)[C@@H](Cc1ccc(O)cc1)NC(=O)[C@@H]1CCN1C(=O)[C@@H](CC1CCCCC1)NC(=O)[C@H]1CC[C@H](CNC(=N)N)CC1)C(N)=O [Example 31, Trans-4-(guanidinomethyl)cyclohexanecarboxylic acid-D-Cha-L-Aze-D-Try-L-Har amide] (X1-[dCha][Aze][dY][hArg]-NH2)	3 nM

Same assay, conditions: peptide concentration of 250 nM

Compound	inhibition of the amidase activity of the thrombin
N-acetyl-D-Phe-D-Cha-L-Aze-D-Tyr-L-Har amide (Ac-[dF][dCha][Aze][dY][hArg]-NH2; SMILES CC(=O)N[C@H](Cc1ccccc1)C(=O)N[C@H](CC1CCCCC1)C(=O)N1CC[C@H]1C(=O)N[C@H](Cc1ccc(O)cc1)C(=O)N[C@@H](CCCCNC(=N)N)C(N)=O) [Example 20]	77%
N-acetyl-L-Ala-D-Cha-L-Aze-D-Tyr-L-Har amide (Ac-A[dCha][Aze][dY][hArg]-NH2; SMILES CC(=O)N[C@@H](C)C(=O)N[C@H](CC1CCCCC1)C(=O)N1CC[C@H]1C(=O)N[C@H](Cc1ccc(O)cc1)C(=O)N[C@@H](CCCCNC(=N)N)C(N)=O) [Example 19]	77%
N-acetyl-L-Cha-D-Cha-L-Aze-D-Tyr-L-Har amide (Ac-[Cha][dCha][Aze][dY][hArg]-NH2) [Example 28]	90%
N-acetyl-L-Dcp-D-Cha-L-Aze-D-Tyr-L-Har amide (Ac-[Dcp][dCha][Aze][dY][hArg]-NH2) [Example 21]	75%
N-acetyl-L-Iq3-D-Cha-L-Aze-D-Tyr-L-Har amide (Ac-[Tic][dCha][Aze][dY][hArg]-NH2) [Example 23]	72%
N-acetyl-L-Nhm-D-Cha-L-Aze-D-Tyr-L-Har amide (Ac-[Tpi][dCha][Aze][dY][hArg]-NH2; SMILES CC(=O)N1Cc2[nH]c3ccccc3c2C[C@H]1C(=O)N[C@H](CC1CCCCC1)C(=O)N1CC[C@H]1C(=O)N[C@H](Cc1ccc(O)cc1)C(=O)N[C@@H](CCCCNC(=N)N)C(N)=O) [Example 22]	80%
N-acetyl-L-Nle-D-Cha-L-Aze-D-Tyr-L-Har amide (Ac-[Nle][dCha][Aze][dY][hArg]-NH2; SMILES CCCC[C@H](NC(C)=O)C(=O)N[C@H](CC1CCCCC1)C(=O)N1CC[C@H]1C(=O)N[C@H](Cc1ccc(O)cc1)C(=O)N[C@@H](CCCCNC(=N)N)C(N)=O) [Example 27]	89%
N-acetyl-L-Phg-D-Cha-L-Aze-D-Tyr-L-Har amide (Ac-[Phg][dCha][Aze][dY][hArg]-NH2) [Example 26]	95%
N-acetyl-L-Pnp-D-Cha-L-Aze-D-Tyr-L-Har amide (Ac-[Phe(4-NO2)][dCha][Aze][dY][hArg]-NH2; SMILES CC(=O)N[C@@H](Cc1ccc([N+](=O)[O-])cc1)C(=O)N[C@H](CC1CCCCC1)C(=O)N1CC[C@H]1C(=O)N[C@H](Cc1ccc(O)cc1)C(=O)N[C@@H](CCCCNC(=N)N)C(N)=O) [Example 29]	72%
N-acetyl-L-Ppd-D-Cha-L-Aze-D-Tyr-L-Har amide (Ac-[Ppd][dCha][Aze][dY][hArg]-NH2) [Example 24]	76%
N-acetyl-L-Tea-D-Cha-L-Aze-D-Tyr-L-Har amide (Ac-[Tea][dCha][Aze][dY][hArg]-NH2) [Example 25]	74%
N-acetyl-L-Trp-D-Cha-L-Aze-D-Tyr-L-Har amide (Ac-W[dCha][Aze][dY][hArg]-NH2; SMILES CC(=O)N[C@@H](Cc1c[nH]c2ccccc12)C(=O)N[C@H](CC1CCCCC1)C(=O)N1CC[C@H]1C(=O)N[C@H](Cc1ccc(O)cc1)C(=O)N[C@@H](CCCCNC(=N)N)C(N)=O) [Example 18]	76%

Same assay, conditions: peptide concentration of 1 μM

Compound	inhibition of the amidase activity of the thrombin
N-acetyl-D-Gln-D-His-L-Cha-D-Pro-D-Tyr-L-Arg amide (Ac-[dQ][dH][Cha][dP][dY]R-NH2; SMILES CC(=O)N[C@H](CCC(N)=O)C(=O)N[C@H](Cc1c[nH]cn1)C(=O)N[C@@H](CC1CCCCC1)C(=O)N1CCC[C@@H]1C(=O)N[C@H](Cc1ccc(O)cc1)C(=O)N[C@@H](CCCNC(=N)N)C(N)=O) [Example 1]	59%
N-acetyl-D-Glu-L-Cha-D-Pro-D-Tyr-L-Arg amide (Ac-[dE][Cha][dP][dY]R-NH2; SMILES CC(=O)N[C@H](CCC(=O)O)C(=O)N[C@@H](CC1CCCCC1)C(=O)N1CCC[C@@H]1C(=O)N[C@H](Cc1ccc(O)cc1)C(=O)N[C@@H](CCCNC(=N)N)C(N)=O) [Example 2]	58%
N-acetyl-D-Lys-L-Nle-L-Cha-D-Pro-D-Tyr-L-Arg amide (Ac-[dK][Nle][Cha][dP][dY]R-NH2; SMILES CCCC[C@H](NC(=O)[C@@H](CCCCN)NC(C)=O)C(=O)N[C@@H](CC1CCCCC1)C(=O)N1CCC[C@@H]1C(=O)N[C@H](Cc1ccc(O)cc1)C(=O)N[C@@H](CCCNC(=N)N)C(N)=O) [Example 12]	48%
N-acetyl-D-Tyr-L-Cha-D-Pro-D-Tyr-L-Arg amide (Ac-[dY][Cha][dP][dY]R-NH2; SMILES CC(=O)N[C@H](Cc1ccc(O)cc1)C(=O)N[C@@H](CC1CCCCC1)C(=O)N1CCC[C@@H]1C(=O)N[C@H](Cc1ccc(O)cc1)C(=O)N[C@@H](CCCNC(=N)N)C(N)=O) [Example 13]	47%
N-acetyl-D-Val-D-His-L-Cha-D-Pro-D-Tyr-L-Arg amide (Ac-[dV][dH][Cha][dP][dY]R-NH2; SMILES CC(=O)N[C@@H](C(=O)N[C@H](Cc1c[nH]cn1)C(=O)N[C@@H](CC1CCCCC1)C(=O)N1CCC[C@@H]1C(=O)N[C@H](Cc1ccc(O)cc1)C(=O)N[C@@H](CCCNC(=N)N)C(N)=O)C(C)C) [Example 3]	51%
N-acetyl-D-Val-L-Cha-D-Pro-D-Tyr-L-Arg amide (Ac-[dV][Cha][dP][dY]R-NH2; SMILES CC(=O)N[C@@H](C(=O)N[C@@H](CC1CCCCC1)C(=O)N1CCC[C@@H]1C(=O)N[C@H](Cc1ccc(O)cc1)C(=O)N[C@@H](CCCNC(=N)N)C(N)=O)C(C)C) [Example 8]	45%
N-acetyl-L-Ala-D-Cha-L-Aze-D-Tyr-L-Arg amide (Ac-A[dCha][Aze][dY]R-NH2; SMILES CC(=O)N[C@@H](C)C(=O)N[C@H](CC1CCCCC1)C(=O)N1CC[C@H]1C(=O)N[C@H](Cc1ccc(O)cc1)C(=O)N[C@@H](CCCNC(=N)N)C(N)=O) [Example 16]	63%
N-acetyl-L-Ala-D-Cha-L-Pro-D-Tyr-L-Har amide (Ac-A[dCha]P[dY][hArg]-NH2; SMILES CC(=O)N[C@@H](C)C(=O)N[C@H](CC1CCCCC1)C(=O)N1CCC[C@H]1C(=O)N[C@H](Cc1ccc(O)cc1)C(=O)N[C@@H](CCCCNC(=N)N)C(N)=O) [Example 17]	56%
N-acetyl-L-Ala-L-Cha-D-Pro-D-Tyr-L-Arg amide (Ac-A[Cha][dP][dY]R-NH2; SMILES CC(=O)N[C@@H](C)C(=O)N[C@@H](CC1CCCCC1)C(=O)N1CCC[C@@H]1C(=O)N[C@H](Cc1ccc(O)cc1)C(=O)N[C@@H](CCCNC(=N)N)C(N)=O) [Example 4]	44%
N-acetyl-L-Arg-L-Cha-D-Pro-D-Tyr-L-Arg amide (Ac-R[Cha][dP][dY]R-NH2; SMILES CC(=O)N[C@@H](CCCNC(=N)N)C(=O)N[C@@H](CC1CCCCC1)C(=O)N1CCC[C@@H]1C(=O)N[C@H](Cc1ccc(O)cc1)C(=O)N[C@@H](CCCNC(=N)N)C(N)=O) [Example 14]	47%
N-acetyl-L-Ile-L-Arg-L-Cha-D-Pro-D-Tyr-L-Arg amide (Ac-IR[Cha][dP][dY]R-NH2; SMILES CC[C@H](C)[C@H](NC(C)=O)C(=O)N[C@@H](CCCNC(=N)N)C(=O)N[C@@H](CC1CCCCC1)C(=O)N1CCC[C@@H]1C(=O)N[C@H](Cc1ccc(O)cc1)C(=O)N[C@@H](CCCNC(=N)N)C(N)=O) [Example 5]	61%
N-acetyl-L-Ser-L-Ala-L-Cha-D-Pro-D-Tyr-L-Arg amide (Ac-SA[Cha][dP][dY]R-NH2; SMILES CC(=O)N[C@@H](CO)C(=O)N[C@@H](C)C(=O)N[C@@H](CC1CCCCC1)C(=O)N1CCC[C@@H]1C(=O)N[C@H](Cc1ccc(O)cc1)C(=O)N[C@@H](CCCNC(=N)N)C(N)=O) [Example 10]	47%
N-acetyl-L-Ser-L-Arg-L-Cha-D-Pro-D-Tyr-L-Arg amide (Ac-SR[Cha][dP][dY]R-NH2; SMILES CC(=O)N[C@@H](CO)C(=O)N[C@@H](CCCNC(=N)N)C(=O)N[C@@H](CC1CCCCC1)C(=O)N1CCC[C@@H]1C(=O)N[C@H](Cc1ccc(O)cc1)C(=O)N[C@@H](CCCNC(=N)N)C(N)=O) [Example 11]	51%
N-acetyl-L-Ser-L-Ser-L-Cha-D-Pro-D-Tyr-L-Arg amide (Ac-SS[Cha][dP][dY]R-NH2; SMILES CC(=O)N[C@@H](CO)C(=O)N[C@@H](CO)C(=O)N[C@@H](CC1CCCCC1)C(=O)N1CCC[C@@H]1C(=O)N[C@H](Cc1ccc(O)cc1)C(=O)N[C@@H](CCCNC(=N)N)C(N)=O) [Example 7]	40%
